# Results reported in US20260055186A1 (REPERTOIRE IMMUNE MEDICINES, published 2026).
# Like-named read-outs stand apart in the source and are kept apart here.
# Key:
# [1] = target: T1, human CD8 on human T cells (human, UniProt P01732 22-235); experiment: cell-based or functional assay
# [2] = target: T1, human CD8 on human T cells; experiment: flow cytometry, CD8+ T cells in human PBMCs, 1 h, PE anti-IL12
# Procedure: Fusion proteins 02A01-IgG-IL12 (LC) and 03A01-IgG-IL12 (LC) were evaluated for their ability to specifically target IL12 to CD8⁺ T cells. […] The cells were incubated with media lacking a fusion protein as a negative control. Following 1 hour of incubation with the IL12 fusion constructs, the cells were washed once with complete RPMI medium and prepared for flow cytometry analysis. Cells were washed once with phosphate-buffered saline (PBS) containing 1% bovine serum albumin (PBS/BSA) and then stained with a 1:100 dilution of PE-conjugated anti-IL12 antibody (Clone No. C11.5; BioLegend Cat. No. 501807) in PBS/BSA. Following a 20 minute incubation at room temperature, the cells were washed once with PBS/BSA and then resuspended in PBS/BSA for analysis on a FACSCelesta using Diva software (BD Biosciences). Binding activity was quantified and represented as the mean fluorescent intensity values of IL-12 on either CD8⁺ T cells or NK cells. […] At a saturating dose, there was a 4- to 5-fold more IL-12 bound to CD8⁺ T cells than was bound to NK cells.
# [3] = target: T2, cynomolgus monkey CD8 on cynomolgus cells (cynomolgus monkey); experiment: cell-based or functional assay
# [4] = target: T1, human CD8 on human T cells; experiment: cell-based or functional assay; remark: listed apart in the source
# [5] = target: T2, cynomolgus monkey CD8 on cynomolgus …; experiment: flow cytometry, CD8+ T cells in cynomolgus PBMCs, 30 min 37 °C, anti-IL-12p40
# Procedure: (§1) Fusion proteins H6K3-IgG-IL12 (LC) and H6K3-IgG-IL12 (1×HC) were also evaluated for their ability to bind CD8-expressing cells in human and cynomolgus monkey PBMCs. Briefly, 5×10⁴ human PBMCs (StemCell Technologies) or cynomolgus monkey PBMCs (iQ Biosciences) were incubated with 7 serial 5-fold dilutions of one of the two aforementioned H6K3-IgG-IL12 constructs for 30 minutes at 37° C. Cells were washed twice with MACS buffer and stained with viability dye and fluorophore-conjugated antibodies against IL-12 and cell-surface markers for 20 minutes at 4° C. Cells were analyzed on a FACSCelesta using Diva software (BD Biosciences). Binding activity for all treatments was quantified and represented as the mean fluorescence intensity values of IL-12 on human CD8+ T cells and NK cells (FIGS. 17A-17B) and on cynomolgus monkey CD8+ T cells and NK cells (FIGS. 17C-17D). For the H6K3-IgG-IL12 (LC) treatments, results are also reported as the frequency of IL-12+CD8+ T cells and NK cells (FIG. 17E). As shown in FIGS. 17A-17D, both H6K3-IgG-IL12 (LC) and H6K3-IgG-IL12 (1×HC) were able to selectively bind human CD8+ T cells over NK cells at a range of concentrations. […] Where the cells were incubated with 0.128 nM of the IL-12 fusion constructs, the number of live CD45+ cells staining as CD8+ and IL-12 were assessed by flow cytometry. […]
# [6] = target: T1, human CD8 on human T cells; experiment: flow cytometry, CD8+ T cells in human PBMCs, 30 min 37 °C, anti-IL-12p40
# Procedure: as §1
# [7] = target: T2, cynomolgus monkey CD8 on cynomolgus …; experiment: flow cytometry, NK cells in cynomolgus PBMCs (CD8-expressing by paragraph 442), 30 min 37 °C, anti-IL-12p40
# Procedure: as §1
# [8] = target: T1, human CD8 on human T cells; experiment: flow cytometry, CD8+ T cells in human PBMCs, 30 min 37 °C, anti-human IL-12 AF647
# Procedure: Fusion proteins H6K3-IgG-IL12 (LC) and H6K3-IgG-IL12 (1×HC) were evaluated for their ability to selectively bind human CD8+ T cells in PBMCs. Briefly, 5×10⁴ human PBMCs (StemCell Technologies) were incubated with 7 serial 5-fold dilutions of one of the two aforementioned H6K3-IgG-IL12 constructs for 30 minutes at 37° C. Cells were washed twice with MACS buffer and stained for 20 minutes at 4° C. with fluorophore-conjugated anti-CD3, anti-CD4, anti-CD8, anti-CD56, and anti-IL12 antibodies, and viability dye. Cells were analyzed on a FACSCelesta using Diva software (BD Biosciences). Binding activity was quantified and represented as the mean fluorescent intensity values of IL-12 on either CD8+ T cells or NK Cells. As shown in FIGS. 16A-16B, both H6K3-IgG-IL12 (LC) and H6K3-IgG-IL12 (1×HC) were able to selectively bind human CD8+ T cells over NK cells at a range of concentrations.
# [9] = target: T1, human CD8 on human T cells; experiment: cell-based or functional assay; remark: listed apart in the source
# [10] = target: T1, human CD8 on human T cells; experiment: flow cytometry, human PBMC co-cultured 1 h with the fusion protein, anti-IL2 staining gated on CD8 T cells (IL2 loading, MFI)
# Procedure: (§2) Anti-human CD8-human IL2 molecules were evaluated for their ability to specifically bind and load IL2 on CD8 T cells. Briefly, 1×10⁵ human PBMC were co-cultured with indicated CD8-IL2 (human FC receptor) molecules from one of the concentrations ranging from 0.05 pM to 0.4 nM. Following one hour incubation with molecules, PBMC were washed twice with RPMI complete medium and washed once with PBS. The washed cells were stained with anti-IL2 (MQ1-17H12), anti-human kappa (MHK-49) and lineage surface markers CD3(UCHT1), CD4(SK3) and NK(HCD56) for 20 minutes, after which the cells were washed and analyzed using a flow cytometer. The binding affinity was quantified and represented as mean fluorescence intensity (MFI).
# [11] = target: T1, human CD8 on human T cells; experiment: cell-based or functional assay; remark: listed apart in the source
# [12] = target: T1, human CD8 on human T cells; experiment: flow cytometry, human PBMC co-cultured 1 h with the fusion protein, anti-human kappa staining on CD8 T cells (CD8 antibody binding, MFI)
# Procedure: as §2
# T1 sequence (P01732 22-235): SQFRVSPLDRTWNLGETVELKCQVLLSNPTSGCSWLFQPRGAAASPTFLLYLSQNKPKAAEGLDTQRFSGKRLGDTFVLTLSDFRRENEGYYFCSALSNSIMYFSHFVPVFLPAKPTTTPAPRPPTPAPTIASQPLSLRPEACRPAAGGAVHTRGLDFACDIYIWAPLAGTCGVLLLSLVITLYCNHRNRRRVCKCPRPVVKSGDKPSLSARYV
Binder,EC50 of pSTAT4 signaling in human CD8+ T cells [1] [pM],EC50 (read off the curve) [2] [nM],EC50 of pSTAT4 signaling in cynomolgus CD8+ T cells [3] [pM],EC50 of pSTAT4 signaling in cynomolgus NK cells [3] [pM],EC50 of pSTAT4 signaling in human CD8+ T cells [4] [pM],EC50 (read off the curve) [5] [nM],EC50 (read off the curve) [6] [nM],EC50 (read off the curve) [8] [nM],EC50 of pSTAT5 activation in human CD8+ T cells [9] [pM],EC50 (read off the curve) [10] [nM],EC50 of Ki67 expression (proliferation) in human CD8+ T cells [11] [nM],EC50 (read off the curve) [12] [nM],further results
"02A01-IgG-IL12 (LC) (other, 02A01 IgG with human IL-12p70 linked to the C-terminus of each light chain; human IgG1 Fc with L234A, L235A, P329G, N297A; also called 02A01 IgG IL12p70 (LC)) VH: EVQLQQSGPELVKPGASLKISCKASGYTFTDFTMHWVKQSHGKSLEWIGLVNPNNGGNIYNQNFKGKATLTVDTSSSTAYMELRSLTSEDSSVYYCGRVPLYTSHGMDYWGQGTSVTVSS VL: DIVLTQSPAFLAVSLGQRATISCRASESVDSYDINSMHWYQQKPGQPPKLLIYRASHLQSGIPARFSGSGSRTDFTLTINFVEADDVATYYCQQSNEDPLTFGAGTKLELK",2.72,~0.01,,,,,,,,,,,
"03A01-IgG-IL12 (LC) (other, 03A01 IgG with human IL-12p70 linked to the C-terminus of each light chain; human IgG1 Fc with L234A, L235A, P329G, N297A; also called 03A01 IgG IL12p70 (LC)) VH: DVQFQESGPGLVKPSQSLSLTCTVTGYSITSDFAWNWIRQFPGNELEWMGYISYSGDTNYNPSLRSRISITRDTSKNQFFLQLDSVTTEDTATYYCTIRGYYTDSAFVFWGQGTLVTVSA VL: DIQMTQSSSYLSVSLGGRVTITCKASDHINNWLAWYQQKPGNAPRLLISGATSLETGVPSRFTGSGSGLDYTLSITSLQTEDVATYYCQQYWNSPFTFGSGTKLEIK",14.7,~0.2,,,,,,,,,,,
"H6K3-IgG-IL12 (1×HC) (other, Humanized 02A01 VH6/VK3 IgG1 with one human IL-12p70 on the C-terminus of the knob heavy chain; Fc with L234A, L235A, P329G, N297A and T366W / T366S, L368A, Y407V; not tied to this name; also called hCD8IgG-1×IL12 (HC); hCD8IgG-IL12 (1 × HC)) VH: EVQLVQSGAEVKKPGATVKISCKASGYTFTDFTMHWVQQAPGKGLEWIGLVNPNNGGNIYAEKFQGRVTLTVDTSTSTAYMELSSLRSEDTAVYYCGRVPLYTSHGMDYWGQGTLVTVSS VL: EIVLTQSPATLSLSPGERATISCRASESVDSYDINSMHWYQQKPGQAPRLLIYRASHLQSGIPARFSGSGSRTDFTLTISSLEPEDFATYYCQQSNEDPLTFGQGTKLEIK",,,2.3,2,2.3,~0.05,~0.05,~0.06,,,,,EC50 (read off the curve) [7]: ~0.1 nM
"H6K3-IgG-IL12 (LC) (other, Humanized 02A01 VH6/VK3 IgG1 with human IL-12p70 on each light chain C-terminus; Fc with L234A, L235A, P329G, N297A; not tied to this name; also called hCD8IgG-IL12 (LC)) VH: EVQLVQSGAEVKKPGATVKISCKASGYTFTDFTMHWVQQAPGKGLEWIGLVNPNNGGNIYAEKFQGRVTLTVDTSTSTAYMELSSLRSEDTAVYYCGRVPLYTSHGMDYWGQGTLVTVSS VL: EIVLTQSPATLSLSPGERATISCRASESVDSYDINSMHWYQQKPGQAPRLLIYRASHLQSGIPARFSGSGSRTDFTLTISSLEPEDFATYYCQQSNEDPLTFGQGTKLEIK",,,1.8,2.4,3.3,~0.05,~0.03,~0.04,,,,,
"hCD8 IgG IL2 1× (HC) (other, read as humanized 02A01-VH6-VK3; One wild type human IL-2 on one heavy chain C-terminus; also called hCD8 IgG-IL2(HC)) VH: EVQLVQSGAEVKKPGATVKISCKASGYTFTDFTMHWVQQAPGKGLEWIGLVNPNNGGNIYAEKFQGRVTLTVDTSTSTAYMELSSLRSEDTAVYYCGRVPLYTSHGMDYWGQGTLVTVSS VL: EIVLTQSPATLSLSPGERATISCRASESVDSYDINSMHWYQQKPGQAPRLLIYRASHLQSGIPARFSGSGSRTDFTLTISSLEPEDFATYYCQQSNEDPLTFGQGTKLEIK",,,,,,,,,0.448,~0.03,0.0689,~0.03,
"hCD8 IgG IL2 (LC) (other, read as humanized 02A01-VH6-VK3; Wild type human IL-2 on each light chain C-terminus) VH: EVQLVQSGAEVKKPGATVKISCKASGYTFTDFTMHWVQQAPGKGLEWIGLVNPNNGGNIYAEKFQGRVTLTVDTSTSTAYMELSSLRSEDTAVYYCGRVPLYTSHGMDYWGQGTLVTVSS VL: EIVLTQSPATLSLSPGERATISCRASESVDSYDINSMHWYQQKPGQAPRLLIYRASHLQSGIPARFSGSGSRTDFTLTISSLEPEDFATYYCQQSNEDPLTFGQGTKLEIK",,,,,,,,,0.246,~0.03,0.0551,~0.03,
